Test results: patent publication US8367390B2, “Galactanase variants” (Novozymes A/S, priority 2002, dated 2013)

Experiment: Activity with ONPG, release of o-nitrophenol (ONP) at 405 nm
Format: biochemical
Conditions: Table 11, enzyme 110 μg/ml, ONPG 5 mg/ml
Description: The activity of HIGAL and MTGAL with ONPG was tested by mixing 200 microliters (normally 5.5 mg/ml) ONPG in 50 mM sodium acetate, 1 mM CaCl2, 0.01% Triton X-100, pH 6.5 with 25 microliters galactanase (normally 1 mg/ml) in the well of a microtiter plate. Release of o-nitrophenol (ONP) was measured at room temperature at 405 nm every 10 seconds normally for 30 min on a SpectraMaxPlus (Molecular Devices). Effects on the observed release of ONP was studied with varied enzyme concentration, ONPG concentration and with addition of galactose (Gal), beta-1,4-galactobiose (Gal2) (Megazyme), beta-1,4-galactotriose (Gal3), beta-1,4-galactotetraose (Gal4), glucose (Glu), arabinose (Ara), galacturonic acid (GalA), maltose (Mal) or maltotriose (Mal3).
In Tables 8-11 below, incubation times required to increase the observed absorbance at 405 nm by given amounts are listed. Cells marked ‘n.r.’ indicate that the increase in absorbance was not reached in the experiment. In general, the initial increase in absorbance at 405 nm was very slow, but after a lag phase the rate of ONP release often increased drastically—often approximately exponentially. The most likely explanation for the observed kinetics is that ONPG reacts with the enzyme to give an enzyme-galactosyl intermediate which hydrolyses very slowly. Instead, the Gal of the intermediate is released by transglycosylation, initially with ONPG or added sugar as acceptor. In cases where the rate of ONP release increases, these transglycosylation products are even better acceptors than the initial ones. […] More likely, Gal inhibits the subsequent transglycosylation, which requires binding of ONPG to the +1 and +2 subsites, e.g., by binding to the +2 subsite. With 50 mg/ml Gal added (results not shown) release of ONP was even slower with only insignificant increase of absorbance at 405 nm in 30 min.

B1: HIGAL: GH Family 53 galactanase from Humicola insolens, SEQ ID NO: 2 (wild type parent) (protein, listed as Humicola insolens)
chain: ALQYKGVDWSSVMVEERAGVRYKNVNGQEKPLEYILAENGVNMVRQRVWVNPWDGNYNLDYNIQLARRAKAAGLGLYINFHYSDTWADPAHQTTPAGWPSDINNLAWKLYNYTLDSMNRFADAGIQVDIVSIGNEITQGLLWPLGKTNNWYNIARLLHSAAWGVKDSRLNPKPKIMVHLDNGWNWDTQNWWYTNVLSQGPFEMSDFDMMGVSFYPFYSASATLDSLRRSLNNMVSRWGKEVAVVETNWPTSCPYPRYQFPADVRNVPFSAAGQTQYIQSVANVVSSVSKGVGLFYWEPAWIHNANLGSSCADNTMFTPSGQALSSLSVFHRI
modifications: mat_peptide (1)..()
- Time (min) to increase A405 by: 0.1 (GalA 50 mg/ml): 20.0 min
- Time (min) to increase A405 by: 0.2 (GalA 50 mg/ml): 23.3 min
- Time (min) to increase A405 by: 0.4 (GalA 50 mg/ml): 26.8 min
- Time (min) to increase A405 by: 0.8 (GalA 50 mg/ml): n.r.
- Time (min) to increase A405 by: 1.6 (GalA 50 mg/ml): n.r.
- Time (min) to increase A405 by: 3.2 (GalA 50 mg/ml): n.r.
- Time (min) to increase A405 by: 0.025 (Glu 5 mg/ml): 12.8 min
- Time (min) to increase A405 by: 0.05 (Glu 5 mg/ml): 14.8 min
- Time (min) to increase A405 by: 0.1 (Glu 5 mg/ml): 17.0 min
- Time (min) to increase A405 by: 0.2 (Glu 5 mg/ml): 19.3 min
- Time (min) to increase A405 by: 0.4 (Glu 5 mg/ml): 21.8 min
- Time (min) to increase A405 by: 0.8 (Glu 5 mg/ml): 24.3 min
- Time (min) to increase A405 by: 1.6 (Glu 5 mg/ml): 27.0 min
- Time (min) to increase A405 by: 3.2 (Glu 5 mg/ml): n.r.
- Time (min) to increase A405 by: 0.025 (Mal 5 mg/ml): 11.5 min
- Time (min) to increase A405 by: 0.05 (Mal 5 mg/ml): 13.0 min
- Time (min) to increase A405 by: 0.1 (Mal 5 mg/ml): 14.3 min
- Time (min) to increase A405 by: 0.2 (Mal 5 mg/ml): 15.7 min
- Time (min) to increase A405 by: 0.4 (Mal 5 mg/ml): 17.2 min
- Time (min) to increase A405 by: 0.8 (Mal 5 mg/ml): 18.7 min
- Time (min) to increase A405 by: 1.6 (Mal 5 mg/ml): 20.2 min
- Time (min) to increase A405 by: 3.2 (Mal 5 mg/ml): 22.0 min
- Time (min) to increase A405 by: 0.025 (Mal3 5 mg/ml): 11.0 min
- Time (min) to increase A405 by: 0.05 (Mal3 5 mg/ml): 12.3 min
- Time (min) to increase A405 by: 0.1 (Mal3 5 mg/ml): 13.8 min
- Time (min) to increase A405 by: 0.2 (Mal3 5 mg/ml): 15.2 min
- Time (min) to increase A405 by: 0.4 (Mal3 5 mg/ml): 16.5 min
- Time (min) to increase A405 by: 0.8 (Mal3 5 mg/ml): 18.0 min
- Time (min) to increase A405 by: 1.6 (Mal3 5 mg/ml): 19.3 min
- Time (min) to increase A405 by: 3.2 (Mal3 5 mg/ml): 21.3 min
- Time (min) to increase A405 by: 0.025 (no sugar, first experiment): 8.5 min
- Time (min) to increase A405 by: 0.05 (no sugar, first experiment): 9.5 min
- Time (min) to increase A405 by: 0.1 (no sugar, first experiment): 10.8 min
- Time (min) to increase A405 by: 0.2 (no sugar, first experiment): 12.0 min
- Time (min) to increase A405 by: 0.4 (no sugar, first experiment): 13.3 min
- Time (min) to increase A405 by: 0.8 (no sugar, first experiment): 14.5 min
- Time (min) to increase A405 by: 1.6 (no sugar, first experiment): 15.8 min
- Time (min) to increase A405 by: 3.2 (no sugar, first experiment): 17.3 min
- Time (min) to increase A405 by: 0.025 (no sugar, second experiment): 11.0 min
- Time (min) to increase A405 by: 0.05 (no sugar, second experiment): 12.5 min
- Time (min) to increase A405 by: 0.1 (no sugar, second experiment): 13.8 min
- Time (min) to increase A405 by: 0.2 (no sugar, second experiment): 15.2 min
- Time (min) to increase A405 by: 0.4 (no sugar, second experiment): 16.5 min
- Time (min) to increase A405 by: 0.8 (no sugar, second experiment): 18.0 min
- Time (min) to increase A405 by: 1.6 (no sugar, second experiment): 19.5 min
- Time (min) to increase A405 by: 3.2 (no sugar, second experiment): 21.3 min
- Time (min) to increase A405 by: 0.025 (no sugar, third experiment): 8.7 min
- Time (min) to increase A405 by: 0.05 (no sugar, third experiment): 9.8 min
- Time (min) to increase A405 by: 0.1 (no sugar, third experiment): 11.0 min
- Time (min) to increase A405 by: 0.2 (no sugar, third experiment): 12.2 min
- Time (min) to increase A405 by: 0.4 (no sugar, third experiment): 13.3 min
- Time (min) to increase A405 by: 0.8 (no sugar, third experiment): 14.7 min
- Time (min) to increase A405 by: 1.6 (no sugar, third experiment): 16.0 min
- Time (min) to increase A405 by: 3.2 (no sugar, third experiment): 17.3 min
